These results are taken from patent publication US20100216715A1 (Novo Nordisk, published 2010).

The target in the experiment is T1, human beta-Klotho (human, UniProt Q86Z14 1-1044).
T1 sequence (looked up): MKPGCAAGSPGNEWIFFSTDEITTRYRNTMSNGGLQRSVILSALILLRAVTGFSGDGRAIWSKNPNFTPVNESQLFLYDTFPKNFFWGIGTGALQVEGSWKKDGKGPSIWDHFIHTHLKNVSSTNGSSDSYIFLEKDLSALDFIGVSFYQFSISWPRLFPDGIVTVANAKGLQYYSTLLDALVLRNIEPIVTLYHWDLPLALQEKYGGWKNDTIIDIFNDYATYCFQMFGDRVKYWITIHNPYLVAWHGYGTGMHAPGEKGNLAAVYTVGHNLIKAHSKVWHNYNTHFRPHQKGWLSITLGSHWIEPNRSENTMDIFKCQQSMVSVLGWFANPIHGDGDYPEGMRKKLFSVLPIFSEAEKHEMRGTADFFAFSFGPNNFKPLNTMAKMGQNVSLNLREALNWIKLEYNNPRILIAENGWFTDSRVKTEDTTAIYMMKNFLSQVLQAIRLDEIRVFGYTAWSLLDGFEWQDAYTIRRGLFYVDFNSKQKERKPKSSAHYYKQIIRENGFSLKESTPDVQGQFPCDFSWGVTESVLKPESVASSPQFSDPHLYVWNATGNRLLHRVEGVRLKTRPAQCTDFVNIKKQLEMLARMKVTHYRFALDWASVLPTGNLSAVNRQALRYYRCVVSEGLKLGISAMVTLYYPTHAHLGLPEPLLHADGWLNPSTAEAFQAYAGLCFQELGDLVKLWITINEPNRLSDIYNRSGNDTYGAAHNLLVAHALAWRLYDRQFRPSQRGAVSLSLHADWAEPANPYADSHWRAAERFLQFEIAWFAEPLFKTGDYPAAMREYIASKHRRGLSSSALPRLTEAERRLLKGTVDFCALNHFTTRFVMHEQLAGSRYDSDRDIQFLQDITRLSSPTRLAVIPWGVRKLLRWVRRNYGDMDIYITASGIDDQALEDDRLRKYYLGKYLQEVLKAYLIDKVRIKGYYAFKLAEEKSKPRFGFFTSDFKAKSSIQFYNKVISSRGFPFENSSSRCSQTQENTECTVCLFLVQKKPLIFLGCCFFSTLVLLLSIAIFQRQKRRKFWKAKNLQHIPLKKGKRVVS
The experiment is described as follows: cell-based or functional assay.

B1: (D102N) Met-FGF21 (ligand)
chain: MHPIPDSSPLLQFGGQVRQRYLYTDDAQQTEAHLEIREDGTVGGAADQSPESLLQLKALKPGVIQILGVKTSRFLCQRPDGALYGSLHFDPEACSFRELLLENGYNVYQSEAHGLPLHLPGNKSPHRDPAPRGPARFLPLPGLPPALPEPPGILAPQPPDVGSSDPLSMVGPSQGRSPSYAS
For the molecule B1, the “pERK-HEK293-Beta-klotho without HSA [EC50 (nM)] Median Value” (“pERK-HEK293-Beta-klotho without HSA” below) was 0.7 nM.

B2: Q27E Met-FGF21 (ligand)
chain: MHPIPDSSPLLQFGGQVRQRYLYTDDAEQTEAHLEIREDGTVGGAADQSPESLLQLKALKPGVIQILGVKTSRFLCQRPDGALYGSLHFDPEACSFRELLLEDGYNVYQSEAHGLPLHLPGNKSPHRDPAPRGPARFLPLPGLPPALPEPPGILAPQPPDVGSSDPLSMVGPSQGRSPSYAS
With B2, the “pERK-HEK293-Beta-klotho without HSA” value worked out at 2.2 nM.

B3: (N121Q) Met-FGF21 (ligand)
chain: MHPIPDSSPLLQFGGQVRQRYLYTDDAQQTEAHLEIREDGTVGGAADQSPESLLQLKALKPGVIQILGVKTSRFLCQRPDGALYGSLHFDPEACSFRELLLEDGYNVYQSEAHGLPLHLPGQKSPHRDPAPRGPARFLPLPGLPPALPEPPGILAPQPPDVGSSDPLSMVGPSQGRSPSYAS
Consider B3, for which the “pERK-HEK293-Beta-klotho without HSA” value came to 1 nM.

B4: (M168S) Met-FGF21 (ligand)
chain: MHPIPDSSPLLQFGGQVRQRYLYTDDAQQTEAHLEIREDGTVGGAADQSPESLLQLKALKPGVIQILGVKTSRFLCQRPDGALYGSLHFDPEACSFRELLLEDGYNVYQSEAHGLPLHLPGNKSPHRDPAPRGPARFLPLPGLPPALPEPPGILAPQPPDVGSSDPLSSVGPSQGRSPSYAS
B4: the “pERK-HEK293-Beta-klotho without HSA” value was determined as 100 nM.

B5: K122C Met-FGF21 derivative of Example 4 (ligand)
chain: MHPIPDSSPLLQFGGQVRQRYLYTDDAQQTEAHLEIREDGTVGGAADQSPESLLQLKALKPGVIQILGVKTSRFLCQRPDGALYGSLHFDPEACSFRELLLEDGYNVYQSEAHGLPLHLPGNCSPHRDPAPRGPARFLPLPGLPPALPEPPGILAPQPPDVGSSDPLSMVGPSQGRSPSYAS
modifications: S-122-[1-(2-{2-[2-(2-{2-[2-(2-{2-[(S)-4-carboxy-4-(17-carboxy-heptadecanoylamino)-butyrylamino]-ethoxy}-ethoxy)-acetylamino]-ethoxy}-ethoxy)-acetylamino]-ethylcarbamoyl}-ethyl)-2,5-dioxo-pyrrolidin-3-yl] on the thiol of Cys122
In the case of B5, the “pERK-HEK293-Beta-klotho without HSA” value turned out to be 0.9 nM.

B6: M168L Met-FGF21 (ligand)
chain: MHPIPDSSPLLQFGGQVRQRYLYTDDAQQTEAHLEIREDGTVGGAADQSPESLLQLKALKPGVIQILGVKTSRFLCQRPDGALYGSLHFDPEACSFRELLLEDGYNVYQSEAHGLPLHLPGNKSPHRDPAPRGPARFLPLPGLPPALPEPPGILAPQPPDVGSSDPLSLVGPSQGRSPSYAS
Take B6: the “pERK-HEK293-Beta-klotho without HSA” value came to 1.4 nM.

B7: (179F, 180E, 181R) Met-FGF21 (ligand)
chain: MHPIPDSSPLLQFGGQVRQRYLYTDDAQQTEAHLEIREDGTVGGAADQSPESLLQLKALKPGVIQILGVKTSRFLCQRPDGALYGSLHFDPEACSFRELLLEDGYNVYQSEAHGLPLHLPGNKSPHRDPAPRGPARFLPLPGLPPALPEPPGILAPQPPDVGSSDPLSMVGPSQGRSPSFER
For the molecule B7, the “pERK-HEK293-Beta-klotho without HSA” value worked out at 5.9 nM.

B8: (N121D) Met-FGF21 (ligand)
chain: MHPIPDSSPLLQFGGQVRQRYLYTDDAQQTEAHLEIREDGTVGGAADQSPESLLQLKALKPGVIQILGVKTSRFLCQRPDGALYGSLHFDPEACSFRELLLEDGYNVYQSEAHGLPLHLPGDKSPHRDPAPRGPARFLPLPGLPPALPEPPGILAPQPPDVGSSDPLSMVGPSQGRSPSYAS
With B8, the “pERK-HEK293-Beta-klotho without HSA” value is 1.2 nM.

B9: A26E Met-FGF21 (ligand)
chain: MHPIPDSSPLLQFGGQVRQRYLYTDDEQQTEAHLEIREDGTVGGAADQSPESLLQLKALKPGVIQILGVKTSRFLCQRPDGALYGSLHFDPEACSFRELLLEDGYNVYQSEAHGLPLHLPGNKSPHRDPAPRGPARFLPLPGLPPALPEPPGILAPQPPDVGSSDPLSMVGPSQGRSPSYAS
Take B9: the “pERK-HEK293-Beta-klotho without HSA” value was 4.7 nM.

B10: (Q15F) Met-FGF21 (ligand)
chain: MHPIPDSSPLLQFGGFVRQRYLYTDDAQQTEAHLEIREDGTVGGAADQSPESLLQLKALKPGVIQILGVKTSRFLCQRPDGALYGSLHFDPEACSFRELLLEDGYNVYQSEAHGLPLHLPGNKSPHRDPAPRGPARFLPLPGLPPALPEPPGILAPQPPDVGSSDPLSMVGPSQGRSPSYAS
Regarding B10, the “pERK-HEK293-Beta-klotho without HSA” value turned out to be 3.3 nM.

B11: D102T Met-FGF21 (ligand)
chain: MHPIPDSSPLLQFGGQVRQRYLYTDDAQQTEAHLEIREDGTVGGAADQSPESLLQLKALKPGVIQILGVKTSRFLCQRPDGALYGSLHFDPEACSFRELLLETGYNVYQSEAHGLPLHLPGNKSPHRDPAPRGPARFLPLPGLPPALPEPPGILAPQPPDVGSSDPLSMVGPSQGRSPSYAS
As for B11, the “pERK-HEK293-Beta-klotho without HSA” value amounted to 1.7 nM.

B12: (M168A) Met-FGF21 (ligand)
chain: MHPIPDSSPLLQFGGQVRQRYLYTDDAQQTEAHLEIREDGTVGGAADQSPESLLQLKALKPGVIQILGVKTSRFLCQRPDGALYGSLHFDPEACSFRELLLEDGYNVYQSEAHGLPLHLPGNKSPHRDPAPRGPARFLPLPGLPPALPEPPGILAPQPPDVGSSDPLSAVGPSQGRSPSYAS
As to B12, the “pERK-HEK293-Beta-klotho without HSA” value stood at 100 nM.

B13: (D24K) Met-FGF21 (ligand)
chain: MHPIPDSSPLLQFGGQVRQRYLYTKDAQQTEAHLEIREDGTVGGAADQSPESLLQLKALKPGVIQILGVKTSRFLCQRPDGALYGSLHFDPEACSFRELLLEDGYNVYQSEAHGLPLHLPGNKSPHRDPAPRGPARFLPLPGLPPALPEPPGILAPQPPDVGSSDPLSMVGPSQGRSPSYAS
As to B13, the “pERK-HEK293-Beta-klotho without HSA” value turned out to be 6.7 nM.

B14: (S71C, L166F, S167G, M168L, 169aT, P171L, S172E, Q173A, G174V, Y179F, A180E, S181K) Gly-FGF21 (ligand)
chain: GHPIPDSSPLLQFGGQVRQRYLYTDDAQQTEAHLEIREDGTVGGAADQSPESLLQLKALKPGVIQILGVKTCRFLCQRPDGALYGSLHFDPEACSFRELLLEDGYNVYQSEAHGLPLHLPGNKSPHRDPAPRGPARFLPLPGLPPALPEPPGILAPQPPDVGSSDPFGLVTGLEAVRSPSFEK
For the molecule B14, the “pERK-HEK293-Beta-klotho without HSA” value worked out at 1.4 nM.

B15: (169aT, 171L, 172E, 173A, 174V, 179F, 180E, 181K) Met-FGF21 (ligand)
chain: MHPIPDSSPLLQFGGQVRQRYLYTDDAQQTEAHLEIREDGTVGGAADQSPESLLQLKALKPGVIQILGVKTSRFLCQRPDGALYGSLHFDPEACSFRELLLEDGYNVYQSEAHGLPLHLPGNKSPHRDPAPRGPARFLPLPGLPPALPEPPGILAPQPPDVGSSDPLSMVTGLEAVRSPSFEK
As to B15, the “pERK-HEK293-Beta-klotho without HSA” value amounted to 3.9 nM.

B16: (-1G, 71C, 166F, 167G, 168L, 169aT, 171L, 172E, 173A, 174V, 179F, 180E, 181K) FGF21 derivative of Example 15 (ligand)
chain: GHPIPDSSPLLQFGGQVRQRYLYTDDAQQTEAHLEIREDGTVGGAADQSPESLLQLKALKPGVIQILGVKTCRFLCQRPDGALYGSLHFDPEACSFRELLLEDGYNVYQSEAHGLPLHLPGNKSPHRDPAPRGPARFLPLPGLPPALPEPPGILAPQPPDVGSSDPFGLVTGLEAVRSPSFEK
modifications: S-71-({2-[2-(2-{2-[2-(2-{2-[(S)-4-carboxy-4-(17-carboxy-heptadecanoylamino)-butyrylamino]-ethoxy}-ethoxy)-acetylamino]-ethoxy}-ethoxy)-acetyl-amino]-ethylcarbamoyl}-methyl) on the thiol of Cys71
Regarding B16, the “pERK-HEK293-Beta-klotho without HSA” value was determined as 1.6 nM.

B17: (166F, 167G, 168L, 169aT, 171L, 172E, 173A, 174V, 179F, 180E, 181K) (Compound Z) (ligand)
chain: MHPIPDSSPLLQFGGQVRQRYLYTDDAQQTEAHLEIREDGTVGGAADQSPESLLQLKALKPGVIQILGVKTSRFLCQRPDGALYGSLHFDPEACSFRELLLEDGYNVYQSEAHGLPLHLPGNKSPHRDPAPRGPARFLPLPGLPPALPEPPGILAPQPPDVGSSDPFGLVTGLEAVRSPSFEK
As for B17, the “pERK-HEK293-Beta-klotho without HSA” value was determined as 1 nM.

B18: (S71C, D102E, N121Q, L166F, S167G, M168L, 169aT, P171L, S172E, Q173A, G174V, Y179F, A180E, S181K) Ala-FGF21 (ligand)
chain: AHPIPDSSPLLQFGGQVRQRYLYTDDAQQTEAHLEIREDGTVGGAADQSPESLLQLKALKPGVIQILGVKTCRFLCQRPDGALYGSLHFDPEACSFRELLLEEGYNVYQSEAHGLPLHLPGQKSPHRDPAPRGPARFLPLPGLPPALPEPPGILAPQPPDVGSSDPFGLVTGLEAVRSPSFEK
Consider B18, for which the “pERK-HEK293-Beta-klotho without HSA” value stood at 3.3 nM.

B19: (-14E, -13E, -12A, -11E, -10A, -9G, -8G, -7A, -6G, -5G, -4S, -3G, -2G, -1S, K56R, 59R, 69R, 122R) FGF21 derivative of Example 51 (ligand)
chain: EEAEAGGAGGSGGSHPIPDSSPLLQFGGQVRQRYLYTDDAQQTEAHLEIREDGTVGGAADQSPESLLQLRALRPGVIQILGVRTSRFLCQRPDGALYGSLHFDPEACSFRELLLEDGYNVYQSEAHGLPLHLPGNRSPHRDPAPRGPARFLPLPGLPPALPEPPGILAPQPPDVGSSDPLSMVGPSQGRSPSYAS
modifications: N-alpha-1-[(S)-4-carboxy-4-(17-carboxy-heptadecanoylamino)-butyryl] on the N-terminal alpha amino group
On to B19, for which the “pERK-HEK293-Beta-klotho without HSA” value was 12 nM.

B20: (145aP, 145bM, L146V, P149E, G151E, I152D, A154R, P155G, Q156H, P157L, P158E, D159S, V160D, G161M, S162F, D164S, S167E, M168T, V169D, G170S, P171M, S172D, … (ligand)
chain: MHPIPDSSPLLQFGGQVRQRYLYTDDAQQTEAHLEIREDGTVGGAADQSPESLLQLKALKPGVIQILGVKTSRFLCQRPDGALYGSLHFDPEACSFRELLLEDGYNVYQSEAHGLPLHLPGNKSPHRDPAPRGPARFLPLPGLPPAPMVPEEPEDLRGHLESDMFSSPLETDSMDPFGLVTGLEAVRSPSFEK
With B20, the “pERK-HEK293-Beta-klotho without HSA” value is 17 nM.
